The target of data set [1] is T1, human beta2-microglobulin (hβ2m), monomer (human, UniProt P61769 21-119). The data set is described as follows: intrinsic Trp fluorescence quenching; EC50; Hill slope 0.99 ± 0.06; 1 uM protein; 50 mM MES, 120 mM NaCl, pH 6.2; fluorescence and NMR at 25 °C (NMR plus 0.02% azide, 0.1 mM EDTA, 10% D2O); SPR temperature not stated. The following applies: tags: biotin (N terminus, Lys-7 and/or Lys-92), immobilized, for SPR; hairpin with bulges, U tetraloop.

For data set [2], the target named is T1, human beta2-microglobulin (hβ2m), …. The data set is described as follows: intrinsic Trp fluorescence quenching; 1 uM protein; 50 mM MES, 120 mM NaCl, pH 6.2; fluorescence and NMR at 25 °C (NMR plus 0.02% azide, 0.1 mM EDTA, 10% D2O); SPR temperature not stated. The following applies: tags: biotin (N terminus, Lys-7 and/or Lys-92), immobilized, for SPR; hairpin with bulges, U tetraloop.

T1 sequence (P61769 21-119): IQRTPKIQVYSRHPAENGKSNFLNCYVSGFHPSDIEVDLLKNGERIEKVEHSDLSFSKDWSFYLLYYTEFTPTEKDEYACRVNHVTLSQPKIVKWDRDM

Consider GGGAAUUCUGAGCUACUCCCUUUUGGGCCCGGCUAUGAUUCCCG (XNA, 2'-fluoro C and U (3'-terminal G is ribo)) [2'F B6min], for which the “apparent K (half saturation)” value in data set [1] turned out to be 223 ± 10 nM.

Take GGGAAUUCUGAGCUACUCCCUUUUGGGCCCGGCUAUGAUUCCCG (structured_RNA, none (2'OH)) [2'OH B6min]: the binding result in data set [2] is “no binding”.

For the origin of these results see PMC4175327, “Distinguishing Closely Related Amyloid Precursors Using an RNA Aptamer*”.
